In patent US20190389957A1 (SINGAPORE HEALTH SERVICES PTE, published 2019):

T1: Human IL-11Rα endogenously expressed on primary human cells (human, UniProt Q14626 23-422)
T1 sequence (looked up): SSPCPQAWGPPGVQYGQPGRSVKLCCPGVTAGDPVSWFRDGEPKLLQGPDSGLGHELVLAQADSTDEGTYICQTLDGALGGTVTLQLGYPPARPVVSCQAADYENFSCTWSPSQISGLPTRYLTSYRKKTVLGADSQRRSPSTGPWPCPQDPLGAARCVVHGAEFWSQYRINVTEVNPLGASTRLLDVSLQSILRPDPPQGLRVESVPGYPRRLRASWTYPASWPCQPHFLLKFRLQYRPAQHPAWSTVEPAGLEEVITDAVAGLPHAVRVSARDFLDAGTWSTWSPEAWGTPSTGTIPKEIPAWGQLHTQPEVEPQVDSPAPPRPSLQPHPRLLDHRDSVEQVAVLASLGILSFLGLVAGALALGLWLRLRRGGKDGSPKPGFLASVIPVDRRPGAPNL

T2: IL-11Rα as used in the Biacore kinetics of Example 14 (UniProt Q14626 23-363, limits assumed)
T2 sequence (looked up): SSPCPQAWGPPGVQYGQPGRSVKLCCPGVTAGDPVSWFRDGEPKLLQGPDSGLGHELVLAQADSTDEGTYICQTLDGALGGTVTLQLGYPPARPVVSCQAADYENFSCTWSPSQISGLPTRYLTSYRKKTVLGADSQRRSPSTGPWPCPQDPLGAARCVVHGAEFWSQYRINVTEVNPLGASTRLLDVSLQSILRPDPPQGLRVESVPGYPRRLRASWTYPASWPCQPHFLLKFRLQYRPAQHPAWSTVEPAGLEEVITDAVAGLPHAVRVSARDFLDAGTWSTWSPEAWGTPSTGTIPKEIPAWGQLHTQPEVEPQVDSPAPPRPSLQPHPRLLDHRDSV


How the values were obtained:
[1] = target: Human IL-11, endogenously produced by TGFβ1-stimulated human cells (human) (UniProt P20809); test: cell-based or functional assay
[2] = target: Mouse IL-11, endogenously produced by TGFβ1-stimulated mouse atrial fibroblasts (mouse) (UniProt P47873); test: cell-based or functional assay
[3] = target: T1, Human IL-11Rα endogenously expressed on …; test: cell-based or functional assay
[4] = target: T1, Human IL-11Rα endogenously expressed on …; test: cell-based or functional assay; remark: listed apart in the source
[5] = target: T1, Human IL-11Rα endogenously expressed on …; test: cell-based or functional assay; remark: listed apart in the source
[6] = target: T2, IL-11Rα as used in the Biacore kinetics …; test: SPR (Biacore T200), multi-cycle kinetics, 25 C, HBS-P+ pH 7.4 with 0.1% BSA
Description: The six antibodies were assessed by multi-cycle kinetics analysis at a final concentration of 1 μg/ml, run at 25° C. with HBS-P+ running buffer (pH 7.4) containing 0.1% BSA using a Biacore T200 instrument.
The relative KD was calculated by dividing the KD of the humanised variant by that of the 9A7 antibody assayed in the same experiment. All six humanised antibodies bound to IL-11R within two-fold of 9A7 (SEQ ID NO:7 and 13).

Chain of Mouse IL-11, endogenously produced by TGFβ1-stimulated mouse atrial fibroblasts (mouse) (P47873 22-199 limits assumed): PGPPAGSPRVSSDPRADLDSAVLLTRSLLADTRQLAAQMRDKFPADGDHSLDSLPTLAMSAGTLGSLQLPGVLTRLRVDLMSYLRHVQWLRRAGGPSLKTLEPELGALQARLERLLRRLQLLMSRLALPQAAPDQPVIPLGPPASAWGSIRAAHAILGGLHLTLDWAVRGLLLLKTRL
Chain of Human IL-11, endogenously produced by TGFβ1-stimulated human cells (human) (P20809 22-199 limits assumed): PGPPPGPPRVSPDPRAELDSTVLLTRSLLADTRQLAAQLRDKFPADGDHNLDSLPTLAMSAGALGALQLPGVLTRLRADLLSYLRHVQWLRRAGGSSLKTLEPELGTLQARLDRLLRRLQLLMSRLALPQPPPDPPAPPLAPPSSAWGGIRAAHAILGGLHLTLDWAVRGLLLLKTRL

fold change in percentage of αSMA-positive (activated) human atrial fibroblasts against unstimulated cultures, TGFβ1 5 ng/ml, 24 h [1] [fold]	fold change in percentage of αSMA-positive (activated) mouse atrial fibroblasts against unstimulated cultures, TGFβ1, 24 h [2] [fold]	IC50 of inhibition of MMP2 secretion, primary human atrial fibroblasts + TGFβ1 (panel 'VH3/VL3') [3] [ng/mL]	IC50 of inhibition of MMP2 secretion, human hepatic stellate cells + TGFβ1 5 ng/ml (panel 'VH3/VL3') [4] [ng/mL]	IC50 of inhibition of TIMP1 secretion, primary human lung fibroblasts + TGFB1 5 ng/ml (panel 'VH3/VL3') [5] [ng/mL]	Kd [6] [nM]	koff [6] [s⁻¹]	kon [6] [M⁻¹ s⁻¹]	relative KD (KD divided by KD of 9A7) [6]	IC50 of inhibition of MMP2 secretion, primary human atrial fibroblasts + TGFβ1 (panel 'VH4/VL3') [3] [ng/mL]	IC50 of inhibition of MMP2 secretion, human hepatic stellate cells + TGFβ1 5 ng/ml (panel 'VH4/VL4') [4] [ng/mL]	IC50 of inhibition of TIMP1 secretion, primary human lung fibroblasts + TGFB1 5 ng/ml (panel 'VH4/VL4') [5] [ng/mL]	IC50 of inhibition of MMP2 secretion, primary human atrial fibroblasts + TGFβ1 (panel 'VH4/VL2') [3] [ng/mL]	Molecule
0.89	1.44	–	–	–	–	–	–	–	–	–	–	–	Commercial monoclonal mouse anti-IL-11 antibody (Monoclonal Mouse IgG2A; Clone #22626; Catalog No. MAB218; R&D Systems)
–	–	32.6	23.3	27.4	3.61	0.000751	208000	0.84 ratio to 9A7	–	–	–	–	Humanised BSO-9A7 variant VH3/VL3 (antibody, V domains shown, Variable domains only) VH: QVQLVQSGAEVKKPGASVKVSCKASGYTFTNYWMHWLRQRPGQGLEWIGNIGPSDSKTHYNQKFKDRATLTVDKSTSTAYMELSSLRSEDTAVYYCARGDYVLFTYWGQGTLVTVSS VL: DIVLTQSPATLSLSPGERATLSCRASQSISNNLHWYQQKPGQAPRLLIKYASQSISGIPARFSGSGSGTDFTLTISSLEPEDFAVYFCQQSYSWPLTFGQGTKLEIK
–	–	–	–	–	5.57	0.000992	178000	1.3 ratio to 9A7	64.7	–	–	–	Humanised BSO-9A7 variant VH4/VL3 (antibody, V domains shown, Variable domains only) VH: QVQLVQSGAEVKKPGASVKVSCKASGYTFTNYWMHWLRQRPGQGLEWIGNIGPSDSKTHYNQKFKDRVTMTVDKSTSTAYMELSSLRSEDTAVYYCARGDYVLFTYWGQGTLVTVSS VL: DIVLTQSPATLSLSPGERATLSCRASQSISNNLHWYQQKPGQAPRLLIKYASQSISGIPARFSGSGSGTDFTLTISSLEPEDFAVYFCQQSYSWPLTFGQGTKLEIK
–	–	–	–	–	3.63	0.000801	221000	0.85 ratio to 9A7	–	–	–	–	Humanised BSO-9A7 variant VH3/VL2 (antibody, V domains shown, T0003 heads the columns 'Heavy chain' and 'Light chain', but the entries are variable domains) VH: QVQLVQSGAEVKKPGASVKVSCKASGYTFTNYWMHWLRQRPGQGLEWIGNIGPSDSKTHYNQKFKDRATLTVDKSTSTAYMELSSLRSEDTAVYYCARGDYVLFTYWGQGTLVTVSS VL: DIVLTQSPATLSLSPGERATLSCRASQSISNNLHWYQQKSGQAPRLLIKYASQSISGIPARFSGSGSGTDFTLTISSLETEDFAVYFCQQSYSWPLTFGQGTKLEIK
–	–	–	–	–	5.55	0.000781	141000	1.29 ratio to 9A7	–	3.15	4.19	–	Humanised BSO-9A7 variant VH4/VL4 (antibody, V domains shown, Variable domains only; also called printed once as VH4/VH4) VH: QVQLVQSGAEVKKPGASVKVSCKASGYTFTNYWMHWLRQRPGQGLEWIGNIGPSDSKTHYNQKFKDRVTMTVDKSTSTAYMELSSLRSEDTAVYYCARGDYVLFTYWGQGTLVTVSS VL: DIVLTQSPATLSLSPGERATLSCRASQSISNNLHWYQQKPGQAPRLLIKYASQSISGIPARFSGSGSGTDFTLTISSLEPEDFAVYYCQQSYSWPLTFGQGTKLEIK
–	–	–	–	–	3.71	0.000747	201000	0.86 ratio to 9A7	–	–	–	–	Humanised BSO-9A7 variant VH3/VL4 (antibody, V domains shown, Variable domains only) VH: QVQLVQSGAEVKKPGASVKVSCKASGYTFTNYWMHWLRQRPGQGLEWIGNIGPSDSKTHYNQKFKDRATLTVDKSTSTAYMELSSLRSEDTAVYYCARGDYVLFTYWGQGTLVTVSS VL: DIVLTQSPATLSLSPGERATLSCRASQSISNNLHWYQQKPGQAPRLLIKYASQSISGIPARFSGSGSGTDFTLTISSLEPEDFAVYYCQQSYSWPLTFGQGTKLEIK
–	–	–	–	–	5.67	0.000932	164000	1.32 ratio to 9A7	–	–	–	11.1	Humanised BSO-9A7 variant VH4/VL2 (antibody, V domains shown, Variable domains only) VH: QVQLVQSGAEVKKPGASVKVSCKASGYTFTNYWMHWLRQRPGQGLEWIGNIGPSDSKTHYNQKFKDRVTMTVDKSTSTAYMELSSLRSEDTAVYYCARGDYVLFTYWGQGTLVTVSS VL: DIVLTQSPATLSLSPGERATLSCRASQSISNNLHWYQQKSGQAPRLLIKYASQSISGIPARFSGSGSGTDFTLTISSLETEDFAVYFCQQSYSWPLTFGQGTKLEIK
